Measurements: the supplement of paper PMC3353916
± gives the standard deviation of the averaged measurements.

System: Sindbis virus TE/5'2J-GFP
Test: percent infected (GFP+ in RFP+ ISG-expressing cells); higher = more infection (less antiviral activity)
Protocol: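 Confirmatory testing of 87 ISGs. Triplicate wells of BHK/HA-Zeo (control) or BHK/NZAP-Zeo (ZAP) cells were transduced with lentiviruses co-expressing a human ISG plus TagRFP, then infected 48 h later with SINV TE/5'2J-GFP (moi 5). The % GFP+ cells among RFP+ cells was measured by flow cytometry at 8 h post infection. Fluc lentivirus served as control. Three independent experiments.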

[1] = experiment: confirmatory screen 1, BHK/HA-Zeo (control)
[2] = experiment: confirmatory screen 1, BHK/NZAP-Zeo (ZAP)
[3] = experiment: confirmatory screen 2, BHK/HA-Zeo (control)
[4] = experiment: confirmatory screen 2, BHK/NZAP-Zeo (ZAP)
[5] = experiment: confirmatory screen 3, BHK/HA-Zeo (control)
[6] = experiment: confirmatory screen 3, BHK/NZAP-Zeo (ZAP)
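Also: Interferon-defective BHK-21 derivatives, ZAP line overexpressing the rat ZAP N-terminal zinc finger domain fused to Zeocin resistance, GFP scored within live singlet TagRFP+ cells.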

Substance | percent infected [1] [%] | percent infected [2] [%] | percent infected [3] [%] | percent infected [4] [%] | percent infected [5] [%] | percent infected [6] [%]
MTTEQRRSLQAFQDYIRKTLDPTYILSYMAPWFREEEVQYIQAEKNNKGPMEAATLFLKFLLELQEEGWFRGFLDALDHAGYSGLYEAIESWDFKKIEKLEEYRLLLKRLQPEFKTRIIPTDIISDLSECLINQECEEILQICSTKGMMAGAEKLVECLLRSDKENWPKTLKLALEKERNKFSELWIVEKGIKDVETEDLEDKMETSDIQIFYQEDPECQNLSENSCPPSEVSDTNLYSPFKPRNYQLELALPAMKGKNTIICAPTGCGKTFVSLLICEHHLKKFPQGQKGKVVFFANQIPVYEQQKSVFSKYFERHGYRVTGISGATAENVPVEQIVENNDIIILTPQILVNNLKKGTIPSLSIFTLMIFDECHNTSKQHPYNMIMFNYLDQKLGGSSGPLPQVIGLTASVGVGDAKNTDEALDYICKLCASLDASVIATVKHNLEELEQVVYKPQKFFRKVESRISDKFKYIIAQLMRDTESLAKRICKDLENLSQIQNREFGTQKYEQWIVTVQKACMVFQMPDKDEESRICKALFLYTSHLRKYNDALIISEHARMKDALDYLKDFFSNVRAAGFDEIEQDLTQRFEEKLQELESVSRDPSNENPKLEDLCFILQEEYHLNPETITILFVKTRALVDALKNWIEGNPKLSFLKPGILTGRGKTNQNTGMTLPAQKCILDAFKASGDHNILIATSVADEGIDIAQCNLVILYEYVGNVIKMIQTRGRGRARGSKCFLLTSNAGVIEKEQINMYKEKMMNDSILRLQTWDEAVFREKILHIQTHEKFIRDSQEKPKPVPDKENKKLLCRKCKALACYTADVRVIEECHYTVLGDAFKECFVSRPHPKPKQFSSFEKRAKIFCARQNCSHDWGIHVKYKTFEIPVIKIESFVVEDIATGVQTLYSKWKDFHFEKIPFDPAEMSK [DDX58] | 38 ± 4.1 | 4.81 ± 4.5 | 96.53 ± 0.19 | 89.2 ± 2.2 | 75.6 ± 6 | 23.2 ± 3.1
PCTK2 | 97.15 ± 0.48 | 70.7 ± 3.2 | 96.52 ± 0.12 | 94.42 ± 0.39 | 83.84 ± 0.21 | 86.8 ± 1.1
PDK1 | 94.39 ± 0.65 | 65.7 ± 2.9 | 95.24 ± 0.62 | 95.39 ± 0.19 | 93.83 ± 0.42 | 93.94 ± 0.33
PRIC285 | 94.6 ± 2.5 | 53.7 ± 6.2 | 96.59 ± 0.24 | 95.01 ± 0.88 | 83.7 ± 1.5 | 87.13 ± 0.73
TIMP1 | 94.88 ± 0.13 | 66.4 ± 2.3 | 94.66 ± 0.28 | 93.37 ± 0.42 | 90.3 ± 1.8 | 92.63 ± 0.18
UBE2L6 | 95.97 ± 0.92 | 78.8 ± 2.3 | 96.37 ± 0.3 | 95.27 ± 0.14 | 94.34 ± 0.69 | 93.02 ± 0.28
